Experiments:
[1] = target: T1, folate receptors (FRs) on KB cells (Homo sapiens, UniProt P15328); assay: Relative affinity assay (3H-folic acid competition) on KB cells; assay type: binding; settings: KB cells, 1 h at 37° C.
T1 construct: FR-positive KB cells are heavily seeded into 24-well cell culture plates; endogenous in cells; host or cells: KB cells
Experimental: METHOD. Relative Affinity Assay. The affinity for folate receptors (FRs) relative to folate is determined according to a previously described method (Westerhof, G. R., J. H. Schornagel, et al. (1995) Mol. Pharm. 48: 459-471) with slight modification. Briefly, FR-positive KB cells are heavily seeded into 24-well cell culture plates and allowed to adhere to the plastic for 18 h. Spent incubation media is replaced in designated wells with folate-free RPMI (FFRPMI) supplemented with 100 nM ^3H-folic acid in the absence and presence of increasing concentrations of test article or folic acid. Cells are incubated for 60 min at 37° C. and then rinsed 3 times with PBS, pH 7.4. Five hundred microliters of 1% SDS in PBS, pH 7.4, is added per well. Cell lysates are then collected and added to individual vials containing 5 mL of scintillation cocktail, and then counted for radioactivity. Negative control tubes contain only the ^3H-folic acid in FFRPMI (no competitor). Positive control tubes contain a final concentration of 1 mM folic acid, and CPMs measured in these samples (representing non-specific binding of label) are subtracted from all samples.

[2] = target: T2, folate receptors (FR) on CHO-FRβ cells (Homo sapiens, UniProt P14207); assay: Relative affinity assay (3H-folic acid competition) on CHO-FRβ cells; assay type: binding; settings: 1 h at 37° C.
T2 construct: expressed in transfected cells; host or cells: CHO cells (CHO-FRβ)
T2 sequence (P14207 17-230): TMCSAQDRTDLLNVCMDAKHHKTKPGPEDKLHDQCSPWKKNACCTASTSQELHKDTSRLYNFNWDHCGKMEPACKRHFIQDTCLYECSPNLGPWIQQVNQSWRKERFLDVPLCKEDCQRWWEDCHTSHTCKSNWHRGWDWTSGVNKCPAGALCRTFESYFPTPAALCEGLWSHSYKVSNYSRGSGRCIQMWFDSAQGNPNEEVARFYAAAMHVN

RAW264.7 macrophages = assay: XTT cell viability assay on RAW264.7 macrophages; assay type: cell-based, murine
Experimental: METHOD. Inhibition of Cellular DNA Synthesis. The compounds described herein are evaluated using an in vitro cytotoxicity assay that predicts the ability of the drug to inhibit the growth of folate receptor-positive cells, such as KB cells, RAW264.7 macrophages, and the like. It is to be understood that the choice of cell type can made on the basis of the susceptibility of those selected cells to the drug that forms the conjugate. The test compounds are comprised of folate linked to a respective chemotherapeutic drug, as prepared according to the processes described herein. The test cells are exposed to varying concentrations of folate-drug conjugate, and also in the absence or presence of at least a 100-fold excess of folic acid to assess activity as being specific to folate receptor mediation.
EXAMPLE. […] The anti-proliferative activity of EC1669 is measured in a XTT cell viability assay (FIG. 2) on RAW264.7 cells after a 2-h exposure and a total of 72 h incubation.
RAW264.7 macrophages are susceptible to the drug forming the EC1669 conjugate, aminopterin. The cell viability is assessed by adding XTT (2,3-bis(2-methoxy-4-nitro-5-sulfo-phenyl)-2H-tetrazolium-5-carboxanilide) following the manufacturer's instructions. […] The observed anti-proliferative effect was 100% competable in the presence of 100-fold excess folic acid (FA), indicating a FR-specific mode of action for EC1669.

[3] = tested on: experimental autoimmune encephalomyelitis; assay: Autoimmune encephalomyelitis (EAE) model; assay type: in vivo, rats
Experimental: METHOD. Autoimmune Encephalomyelitis (EAE) Model. EAE is induced in rats by immunization against 25 μg of guinea pig myelin basic protein (MBP) formulated with CFA containing 1 mg of grounded Mycobacterium tuberculosis H37Ra. Pertussis toxin is given intraperitoneally (1 μg/rat) to enhance the organ-specific autoimmunity. Starting 8 days after induction, rats are divided into […]: (1) untreated control (n=8), (2) test compound (n=7), and (3) test compound plus competitor compound (n=7), such as EC0923 competition. All treatments start on day 8 after EAE induction. The animals in the EAE control group are left untreated. […] The clinical severity of EAE is monitored on a daily basis and graded on a scale of 0 to 5 per animal. The clinical signs of ascending paralysis of EAE rats are divided into a 0-5 scale: 0=No disease, 0.5=distal limp tail, 1=limp tail, 2=mild paraparesis; ataxia-weakened hind limbs, 3=moderate paraparesis; hind limbs paresis, 4=complete hind limb paralysis, 5=complete hind limb paralysis and incontinence (euthanasia). On day 16, the animals are euthanized and brain and spinal cords are fixed in formalin for histology.

[4] = Plasma clearance after s.c. administration; assay type: in vivo, Lewis rats
Experimental: METHOD. Plasma clearance. In vivo studies include a minimum of 3 test animals, such as rats, per time point. Illustratively, female Lewis rats with jugular vein catheters (Harlan, regular rodent diet) are given a single subcutaneous injection of test compound, such as EC1669 at 500 nmol/kg. Whole blood samples (300 μL) are collected at the following time points: 1 min, 10 min, 30 min, 1 h, 2 h, 3 h, 4 h, 8 h, and 12 h after injection. The blood samples are placed into anti-coagulant tubes containing 1.7 mg/mL of K3-EDTA and 0.35 mg/mL of N-maleoyl-beta-alanine (0.35 mg/mL) in a 0.15% acetic acid solution. Plasma samples are obtained by centrifugation for 3 min at ˜2,000 g and stored at −80° C. The amounts of test compound in the plasma and any metabolites, such as EC1669 and its two active metabolites aminopterin (AMT) and AMT hydrazide (EC0470), respectively, are quantified by LC-MS/MS.

[5] = tested on: experimental autoimmune uveitis; assay: Experimental autoimmune uveitis (EAU) model
Experimental: Animal Experimental Autoimmune Uveitis Model. Experimental autoimmune uveitis (EAU) is induced in female Lewis rats maintained on a folate-deficient diet (Harlan Teklad, Indianapolis, Ind.). On Day 0, the animals are immunized subcutaneously with 25 μg of bovine S-Ag PDSAg peptide formulated with Freund's incomplete adjuvant containing 0.5 mg of grounded M. Tuberculosis H37Ra. Purified pertussis toxin (PT) is given at a dosage of 1 μg per animal on the same day via intraperitoneal injection. The severity of uveitis in each eye is assessed by a qualitative visual score system: 0=No disease, eye is translucent and reflects light (red reflex); 0.5 (trace)=Dilated blood vessels in the iris, 1=Engorged blood vessels in iris, abnormal pupil contraction; 2=Hazy anterior chamber, decreased red reflex; 3=Moderately opaque anterior chamber, but pupil still visible, dull red reflex; and 4=Opaque anterior chamber and obscured pupil, red reflex absent, proptosis. This assessment yields a maximum uveitis score of 8 per animal.
All treatments start on day 8 after EAU induction. The animals in the EAU control group are untreated. […] The uveitis score and animal body weight are recorded for each animal at predetermined frequencies. The clinical severity of EAU is monitored on a daily basis using an ophthalmoscope and graded on a scale of 0 to 4 per eye with a maximum possible score of 8 per animal. […]

T1 sequence (P15328 25-234): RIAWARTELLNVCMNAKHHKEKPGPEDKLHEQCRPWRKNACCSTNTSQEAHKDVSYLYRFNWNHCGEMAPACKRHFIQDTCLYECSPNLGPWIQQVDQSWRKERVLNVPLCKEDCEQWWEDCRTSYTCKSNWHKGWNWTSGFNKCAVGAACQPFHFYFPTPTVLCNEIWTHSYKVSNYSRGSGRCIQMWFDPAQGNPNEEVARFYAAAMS

N=c1[nH]c(N)nc2ncc(CNc3ccc(C(=O)N[C@@H](CCC(=O)NNC(=O)OCCSSC[C@@H](NC(=O)[C@H](CCC(=O)NC[C@H](O)[C@@H](O)[C@H](O)[C@H](O)CO)NC(=O)[C@@H](CCC(=O)O)NC(=O)[C@H](CCC(=O)NC[C@H](O)[C@@H](O)[C@H](O)[C@H](O)CO)NC(=O)[C@@H](CCC(=O)O)NC(=O)[C@H](CCC(=O)NC[C@H](O)[C@@H](O)[C@H](O)[C@H](O)CO)NC(=O)CC[C@H](NC(=O)c4ccc(NCc5cnc6nc(N)[nH]c(=O)c6n5)cc4)C(=O)O)C(=O)O)C(=O)O)cc3)nc12 [EC1669]
relative affinity (normalized against folic acid, set to 1) [1]: 0.53 | relative affinity (normalized against folic acid, set to 1) [2]: 0.13 | IC50 (RAW264.7 macrophages; 2-h exposure, total of 72 h incubation, read-out: relative IC50, inhibition of cell proliferation): ~1.2 nM | anti-proliferative effect competable by folic acid (RAW264.7 macrophages; 100-fold excess folic acid): 100% | therapeutic effect with folate receptor competitor EC0923 ([3]; excess EC0923): blocked | efficacy against EAE (clinical score) ([3]; s.c. every other day from day 8): effectively suppresses the neurological symptoms | treatment-related weight loss ([3]; when dosed alone): not observed | half-life ([4]; female, Lewis, rat, in vivo, sc, EC1669 500 nmol/kg s.c., blood, read-out: elimination half-life): ~37 min | Cmax ([4]; female, Lewis, rat, in vivo, sc, EC1669 500 nmol/kg s.c., plasma, read-out: Cmax): ~472 nM | AUC ([4]; female, Lewis, rat, in vivo, sc, EC1669 500 nmol/kg s.c., read-out: area-under-the-curve (AUC) (converted)): 0.867 µM·h | % Released: AMT ([4]; plasma, 12 h collection period): 9.5% | % Released: EC0470 ([4]; plasma, 12 h collection period): 6.3% | % Released: Total (AMT plus EC0470) ([4]; plasma, 12 h collection period, based on AUC): ~15.8% | AMT/EC0470 Ratio ([4]; rat, in vivo): 1.51 | symptoms of EAU (uveitis score) ([5]; 250 nmol/kg s.c. q2d, five doses from day 8): effectively reduces the symptoms of EAU | treatment-related weight loss / whole animal toxicity ([5]; rat, in vivo): does not cause whole animal toxicity

From patent US20200121801A1, “DRUG DELIVERY CONJUGATES CONTAINING UNNATURAL AMINO ACIDS AND METHODS FOR USING” (priority 2012, published 2020)
